Experimental data taken from PMC8526985, “Characterization of the transactivation and nuclear localization functions of Pichia pastoris zinc finger transcription factor Mxr1p”.
Positions count from the first letter of the chain named.

T1: Mxr1pN150 (Pichia pastoris (Komagataella phaffii), UniProt C4R818 1-150)
T1 sequence: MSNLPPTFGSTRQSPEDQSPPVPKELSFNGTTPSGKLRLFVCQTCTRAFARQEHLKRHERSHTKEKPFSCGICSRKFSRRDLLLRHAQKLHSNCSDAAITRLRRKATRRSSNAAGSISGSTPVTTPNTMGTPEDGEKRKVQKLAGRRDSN

B1: ALD6-1 promoter MXRE2 (dsDNA)
DNA 1: CCGCACCCCCGAATTTTCACAAATTACCCCACACCCTATA
DNA 2: TATAGGGTGTGGGGTAATTTGTGAAAATTCGGGGGTGCGG
B2: MXRE2-M (dsDNA)
DNA 1: B1 DNA 1 with C30A
DNA 2: B1 DNA 2 with G11T
B3: ALD6-1 promoter MXRE1 (dsDNA)
DNA 1: CCGCTCAACGGTTCTCCTCTACATCGTCCCTCTTTTGGAG
DNA 2: CTCCAAAAGAGGGACGATGTAGAGGAGAACCGTTGAGCGG
B4: MXRE1-M (dsDNA)
DNA 1: B3 DNA 1 with C17A
DNA 2: B3 DNA 2 with G24T
B5: ALD6-1 promoter MXRE3 (dsDNA)
DNA 1: ACCCTATACTCCACCACTATGAGGGTTATTAGAACTGATC
DNA 2: GATCAGTTCTAATAACCCTCATAGTGGTGGAGTATAGGGT
B6: MXRE3-M (dsDNA)
DNA 1: B5 DNA 1 with C12A
DNA 2: B5 DNA 2 with G29T

These binders were tested against T1, Mxr1pN150 (assay: EMSA; EMSA conditions not given in the material). Settings: protein: recombinant; (radiolabeled).

Binder	binding result
B1	binds
B2	no binding
B3	binds
B4	no binding
B5	binds
B6	no binding
